From patent US7629323B2, “Manipulation of neuronal ion channels” (Northwestern University, priority 2003, dated 2009)

What was measured:
Kv3.1 channel = biological target: T1, Kv3.1 channel (Rattus norvegicus, UniProt P25122); settings: low micromolar concentrations; cited from earlier work
T1 sequence (P25122 1-585): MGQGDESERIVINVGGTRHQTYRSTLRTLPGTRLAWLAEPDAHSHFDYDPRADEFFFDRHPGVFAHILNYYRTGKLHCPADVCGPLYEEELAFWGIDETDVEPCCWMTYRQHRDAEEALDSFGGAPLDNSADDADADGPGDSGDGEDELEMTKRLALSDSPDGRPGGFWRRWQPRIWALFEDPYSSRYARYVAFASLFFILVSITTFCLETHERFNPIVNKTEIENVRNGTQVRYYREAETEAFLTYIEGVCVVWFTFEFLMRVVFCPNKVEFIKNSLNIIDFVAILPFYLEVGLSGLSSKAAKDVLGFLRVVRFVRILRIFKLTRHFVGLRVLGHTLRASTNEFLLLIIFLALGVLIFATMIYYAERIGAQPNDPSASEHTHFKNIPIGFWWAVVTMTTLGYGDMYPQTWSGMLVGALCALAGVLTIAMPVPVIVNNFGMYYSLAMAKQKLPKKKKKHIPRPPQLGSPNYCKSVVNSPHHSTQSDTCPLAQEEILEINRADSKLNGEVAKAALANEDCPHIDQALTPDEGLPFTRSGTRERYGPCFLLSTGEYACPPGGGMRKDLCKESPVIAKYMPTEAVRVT

[1] = biological target: T2, Kv3.4a/Kv3.1b heteromeric channels (Rattus norvegicus, UniProt P25122+Q63734); type: cell-based; settings: HEK293 cells, n=4
T2 construct: expressed in transfected cells; host or cells: HEK293
T2 sequence (Q63734 1-625): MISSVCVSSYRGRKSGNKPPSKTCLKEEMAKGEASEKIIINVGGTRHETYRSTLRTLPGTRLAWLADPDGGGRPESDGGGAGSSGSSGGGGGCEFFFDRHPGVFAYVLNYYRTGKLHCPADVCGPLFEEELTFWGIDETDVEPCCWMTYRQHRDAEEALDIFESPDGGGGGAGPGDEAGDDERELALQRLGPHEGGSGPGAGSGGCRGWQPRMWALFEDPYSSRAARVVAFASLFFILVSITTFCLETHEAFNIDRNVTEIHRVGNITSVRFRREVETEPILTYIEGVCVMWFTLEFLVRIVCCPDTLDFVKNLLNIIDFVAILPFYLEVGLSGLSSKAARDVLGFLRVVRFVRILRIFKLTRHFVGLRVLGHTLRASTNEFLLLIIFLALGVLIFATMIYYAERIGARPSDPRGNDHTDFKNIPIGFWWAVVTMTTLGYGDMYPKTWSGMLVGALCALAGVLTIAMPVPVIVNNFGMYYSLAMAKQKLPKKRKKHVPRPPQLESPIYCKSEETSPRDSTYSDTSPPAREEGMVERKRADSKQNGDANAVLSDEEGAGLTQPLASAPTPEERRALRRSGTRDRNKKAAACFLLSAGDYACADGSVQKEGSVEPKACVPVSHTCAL
T2 sequence (P25122 1-585): T1 sequence (P25122 1-585)
Source text: Electrophysiology. Whole-cell recordings used standard techniques^27,28. The internal solution consisted of (in mM): 30-90 K2SO4, 0-60 N-methyl-D-glucamine, 2 MgCl2, 40 HEPES, 5 EGTA, 12 phosphocreatine, 2 Na2ATP, 0.2 Na3GTP, and 0.1 leupeptin, pH 7.2 with H2SO4 (osmolarity 260-270 mOsm/l). The external solution consisted of (in mM): 140 Na-isethionate, 2 KCl, 4 MgCl2, 10 HEPES, 12 glucose and 0.001 TTX, pH 7.35 with NaOH (osmolarity 295-305 mOsm/l). The internal solution for current clamp recordings consisted of (in mM) 110 potassium methylsulphate, 2 MgCl2, 40 HEPES, 5 EGTA, 12 phosphocreatine, 2 Na2ATP, 0.2 Na3GTP, and 0.1 leupeptin, pH 7.2 with H2SO4 (osmolarity 260-270 mOsm/l). In the case of current clamp recordings, TTX was omitted from external solution. For the recordings in the presence of Ca^+2 ions EGTA was omitted from internal solution and 4 mM of MgCl2 was substituted by 2 mM of CaCl2 and 2 mM of MgCl2. […] Recordings were obtained with Axon Instruments 200 patch-clamp amplifier and controlled and monitored with a PC running pClamp software (version 7.0) (Axon Instruments Inc., Union City, Calif.). […] After seal rupture, series resistance (2-10 MΩ) was compensated (75-90%) and periodically monitored. […]
Single cell RT-PCR (scRT-PCR). […] In the case of co-transfection with Kv3.4a and Kv3.1b cDNA, single cell RT-PCR was used to confirm the presence of both mRNAs in the recorded cell. […]

[2] = test system: Inward rectifier K+ channels; settings: cited from earlier work

## BDS-I (AAPCFCSGKPGRGDLWILRGTCPGGYGYTSNCYKWPNICCYPH)
Kv3.1 channel
  effects on Kv3.1 channel currents: only minor effects
[1]
  block of Kv3.4a/Kv3.1b heteromeric channels: strong at the beginning of a depolarizing step and then waned with maintained depolarization
[2]
  sensitivity of inward rectifier K+ channels: insensitive
